What was measured:
His6-DBD = His6-DBD (Arabidopsis thaliana Col-0, UniProt O80982 42-135); experiment: EMSA; EMSA: LightShift kit 1x binding buffer, 50 ng poly(dI-dC), 2.5% glycerol, 0.05% NP-40, 5 mM MgCl2, 100 ng protein, 1.5 ng probe, 30 min, room temperature; pull-down: 50 mM Tris-HCl pH 7.5, 100 mM NaCl, 0.1% Triton X-100, poly(dI-dC), 25 C; conditions: protein: recombinant; tags: His6 (pET-28a); label: 5' biotin; blunt
His6-HsfA2 [1] = molecular target: T1, His6-HsfA2 (Arabidopsis thaliana Col-0, UniProt O80982 1-345); experiment: streptavidin-agarose pull-down; 0 hr prebinding control; EMSA: LightShift kit 1x binding buffer, 50 ng poly(dI-dC), 2.5% glycerol, 0.05% NP-40, 5 mM MgCl2, 100 ng protein, 1.5 ng probe, 30 min, room temperature; pull-down: 50 mM Tris-HCl pH 7.5, 100 mM NaCl, 0.1% Triton X-100, poly(dI-dC), 25 C; conditions: protein: recombinant; tags: His6 (pET-28a); chain copies: 3; label: 5' biotin; blunt
His6-S-HsfA4c = His6-S-HsfA4c (Arabidopsis thaliana Col-0, UniProt J7FXE8 1-102); experiment: EMSA; EMSA: LightShift kit 1x binding buffer, 50 ng poly(dI-dC), 2.5% glycerol, 0.05% NP-40, 5 mM MgCl2, 100 ng protein, 1.5 ng probe, 30 min, room temperature; pull-down: 50 mM Tris-HCl pH 7.5, 100 mM NaCl, 0.1% Triton X-100, poly(dI-dC), 25 C; conditions: protein: recombinant; tags: His6 (pET-28a); label: 5' biotin; blunt
His6-tDBD = His6-tDBD (Arabidopsis thaliana Col-0, UniProt J7G1E7 42-103); experiment: as above; conditions: protein: recombinant; tags: His6 (pET-28a); label: 5' biotin; blunt
His6-S-HsfB2a = His6-S-HsfB2a (Arabidopsis thaliana Col-0, UniProt J7G5V7 1-85); experiment: as above; conditions: protein: recombinant; tags: His6 (pET-28a); label: 5' biotin; blunt
His6-HsfA2 [2] = molecular target: T1, His6-HsfA2; experiment: as above; conditions: protein: recombinant; tags: His6 (pET-28a); chain copies: 3; label: 5' biotin; blunt
His6-S-HsfB1 = His6-S-HsfB1 (Arabidopsis thaliana Col-0, UniProt J7FYU6 1-86); experiment: as above; conditions: protein: recombinant; tags: His6 (pET-28a); label: 5' biotin; blunt
Chain of His6-S-HsfB1 (J7FYU6 entry or part of it): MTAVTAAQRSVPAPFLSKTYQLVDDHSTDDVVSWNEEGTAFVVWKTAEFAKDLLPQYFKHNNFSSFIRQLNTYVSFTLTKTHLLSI

T1 sequence (O80982 whole entry): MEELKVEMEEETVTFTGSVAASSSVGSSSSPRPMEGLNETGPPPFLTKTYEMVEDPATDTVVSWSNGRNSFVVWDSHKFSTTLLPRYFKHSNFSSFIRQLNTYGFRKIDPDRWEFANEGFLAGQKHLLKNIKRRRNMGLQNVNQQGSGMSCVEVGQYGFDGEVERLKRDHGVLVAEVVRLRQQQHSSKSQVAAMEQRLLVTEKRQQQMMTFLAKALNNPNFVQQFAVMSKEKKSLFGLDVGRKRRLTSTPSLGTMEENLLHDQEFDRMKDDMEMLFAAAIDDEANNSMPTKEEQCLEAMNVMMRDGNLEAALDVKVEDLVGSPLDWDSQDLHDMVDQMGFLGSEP
Chain of His6-S-HsfB2a (J7G5V7 entry or part of it): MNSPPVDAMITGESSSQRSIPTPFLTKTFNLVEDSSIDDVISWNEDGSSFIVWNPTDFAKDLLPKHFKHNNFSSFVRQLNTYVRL
Chain of His6-tDBD (J7G1E7 entry or part of it): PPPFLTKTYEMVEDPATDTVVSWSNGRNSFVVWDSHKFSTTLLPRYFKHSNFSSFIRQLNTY
Chain of His6-S-HsfA4c (J7FXE8 entry or part of it): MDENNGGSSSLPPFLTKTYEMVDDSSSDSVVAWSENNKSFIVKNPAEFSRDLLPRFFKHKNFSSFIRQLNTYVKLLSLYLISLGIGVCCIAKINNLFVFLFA
Chain of His6-DBD (O80982 42-135): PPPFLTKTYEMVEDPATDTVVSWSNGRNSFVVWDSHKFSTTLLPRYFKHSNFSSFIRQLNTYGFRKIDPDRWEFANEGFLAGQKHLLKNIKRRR

Binder | binding result (His6-DBD) | binding result (His6-HsfA2 [1]) | binding result (His6-S-HsfA4c) | binding result (His6-tDBD) | binding result (His6-S-HsfB2a) | binding result (His6-HsfA2 [2]) | binding result (His6-S-HsfB1)
HSE probe (dsDNA) DNA 1: TCGACTTCTAGAAGCTTCCAGAAATTAG DNA 2: CTAATTTCTGGAAGCTTCTAGAAGTCGA | binds | binds | – | – | – | – | –
3xHRE probe (dsDNA) DNA 1: GAAGAAGGAAGAAGGAAGAAG DNA 2: CTTCTTCCTTCTTCCTTCTTC | – | – | binds | binds | no binding | no binding | binds

From PMC12582567, “Short heat shock factor A2 regulates heat resistance and growth balance in Arabidopsis”
